Several values for one entry are separate records, joined by “and”; a condition that tells them apart may be missing. Identical values can stand only once. Entries after “also recorded” stand apart in the source; their conditions may differ. Ends that are not written are not given here.

One data set concerns CEM or C8166 cells. The following applies: concentrations of 10^-7 to 10^-4 M; cultured continuously (15 days).
The next data set has as its system GalCer receptor. Nature of the data set: Binding of gp120 to GalCer (HPTLC binding assay). As to the method:
In another experiment with the same MBPCs, the effect of MBPCs on the binding of gp120 to GalCer was analyzed using a high performance thin layer chromatography (HPTLC) binding assay. MBPCs (10^-4 M) were preincubated with GalCer for 1 hour at room temperature. After thorough washing, the HPTLC plates were incubated with HIV-1 recombinant gp120 (2.5 ug/ml) followed by rabbit anti-gp120 and ^125 I-goat anti-rabbit IgG. The plates were washed in PBS and exposed to Amersham Hyperfilm MP for 8 hours. As shown in FIG. 5B treatment of HT-29 cells with active MBPCs protected the cells from infection by HIV-1 (NDK isolate). This antiviral effect was correlated with its ability to block the binding of gp120 to GalCer.

The subject of another data set is HIV-2 (ROD). Nature of the data set: Fusion between chronically infected CEM cells and MT-2 cells. The following applies: separate tests. In kind it is cell-based.
For another data set, the system named is HIV-1 (NDK). The data set is described as above. In kind it is cell-based. The following applies: separate tests.
The test system of a further data set is New Zealand rabbits. Nature of the data set: Immunogenicity in rabbits (serum ELISA for anti MBPC.3 antibodies). The class given is in vivo, rabbit. As for the experimental part:
[…] This procedure was repeated subcutaneously with incomplete Freud's adjuvant on days 30, 60, 90 and 120. Sera were tested by ELISA, looking for specific anti MBPC.3 antibodies. Data presented here is from the last serum samples (120+7 days).
[…] After saturation with 400 μL of casein (5 g/100 ml), different serum dilutions were added for 2 hours at 37° C. The controls were sera from non-immunized rabbits and mice. After rinsing (5×), 50 μl of 1:5000 of peroxidase-labeled swine anti-rabbit IgG or anti-mouse IgG (Dakopatts, Copenhagen, Denmark) were added for 1 hour at 37° C. After further rinsing (5×), 100 μl of ortho-phenylenediamine were added for 30 min in the dark at room temperature. The reaction was stopped by adding 50 μl of 4N sulfuric acid, and optical density (OD) ratios were determined at 492/620 nm.
In general terms: In an ELISA, binding on a coated surface is turned into a signal by an enzyme label.

In another data set the test system is 8E5 cells. Put plainly: Toxicity in the cell fusion test (MTT assay or trypan blue exclusion). The class given is cell-based. The following applies: 5 × 10^-5 M; listed as [RKSIHIGPGRAFYT]4 -MLC. (In general: Formazan colour is commonly taken as a measure of viable cells.)

Procedure for CEM or C8166 cells: An MTT assay, a colorimetric cell viability assay using 3-[4,5-Dimethylthiazol-2-yl] 2,5-diphenyltetrazolium bromide, was used to assess the effect of MBPCs on cell viability. CEM or C8166 cells (5×10^4) were cultured continuously (15 days) in the presence of various concentrations of MBPCs in the wells of 96-well microtiter plates in 200 μl final volume of RPMI 1640 medium supplemented with 5% fetal calf serum, 1% glutamine, 1% streptomycin-penicillin (available from Gibco of Irvine, Scotland) in a humidified atmosphere with 5% CO2. Every 3 to 4 days, an MTT assay was performed on 100 μl of cells suspension and MBPC were added to cell culture and the volume completed to 200 μl.

With (GPGRAF)8 -(K)4 -(K)2 -K-βA-OH [MBPC.3], the “toxicity to cells (MTT assay)” value in the data set on CEM or C8166 cells is recorded as “not toxic”. The “binding to / activity on the Galactosyl Ceramide receptor” value in the data set on GalCer receptor was “bind to the second receptor”. Further, the block of fusion result in the data set with HIV-2 (ROD) and in the data set with HIV-1 (NDK) was “able to block the fusion” in each case. Moreover, the “optical density (OD) ratio 492/620 nm (×10^3)” value was 968 and 981 in the data set on New Zealand rabbits (plate 1, rabbit serum 10^-2, coat 0.5 μg MBPC.3/ml); 1280 and 1267 in the data set with New Zealand rabbits (plate 1, rabbit serum 10^-2, coat 1 μg MBPC.3/ml); 2000 with New Zealand rabbits (plate 1, rabbit serum 10^-2, coat 5 μg MBPC.3/ml); 2000 in the data set with New Zealand rabbits (plate 1, rabbit serum 10^-2, coat 10 μg MBPC.3/ml); 318 and 296 with New Zealand rabbits (plate 1, rabbit serum 10^-3, coat 0.5 μg MBPC.3/ml); 346 and 349 with New Zealand rabbits (plate 1, rabbit serum 10^-3, coat 1 μg MBPC.3/ml). Moreover, the “optical density (OD) ratio 492/620 nm (×10^3)” value in the data set on New Zealand rabbits (plate 1, rabbit serum 10^-3, coat 5 μg MBPC.3/ml) was 2000; with New Zealand rabbits (plate 1, rabbit serum 10^-3, coat 10 μg MBPC.3/ml) it was 2000; in the data set with New Zealand rabbits (plate 1, rabbit serum 10^-4, coat 0.5 μg MBPC.3/ml), 145 and 140; in the data set on New Zealand rabbits (plate 1, rabbit serum 10^-4, coat 1 μg MBPC.3/ml), 182 and 193; with New Zealand rabbits (plate 1, rabbit serum 10^-4, coat 5 μg MBPC.3/ml) it was 796 and 809; in the data set with New Zealand rabbits (plate 1, rabbit serum 10^-4, coat 10 μg MBPC.3/ml), 924 and 823. Besides, the “optical density (OD) ratio 492/620 nm (×10^3)” value with New Zealand rabbits (plate 2, rabbit serum 10^-2, coat 5 μg MBPC.3/ml) was 2000; in the data set with New Zealand rabbits (plate 2, rabbit serum 10^-2, coat 10 μg MBPC.3/ml), 2000; in the data set on New Zealand rabbits (plate 2, rabbit serum 10^-3, coat 0.5 μg MBPC.3/ml) it was 197 and 181; in the data set on New Zealand rabbits (plate 2, rabbit serum 10^-3, coat 5 μg MBPC.3/ml), 2000; with New Zealand rabbits (plate 2, rabbit serum 10^-3, coat 10 μg MBPC.3/ml), 2000; with New Zealand rabbits (plate 2, rabbit serum 10^-4, coat 0.5 μg MBPC.3/ml) it was 80 and 74. In addition, the “optical density (OD) ratio 492/620 nm (×10^3)” value in the data set on New Zealand rabbits (plate 2, rabbit serum 10^-4, coat 1 μg MBPC.3/ml) was 113 and 84; in the data set with New Zealand rabbits (plate 2, rabbit serum 10^-4, coat 5 μg MBPC.3/ml), 678 and 626; in the data set on New Zealand rabbits (plate 2, rabbit serum 10^-4, coat 10 μg MBPC.3/ml), 734 and 689; in the data set with New Zealand rabbits (plate 3, rabbit serum 10^-2, coat 0.5 μg MBPC.3/ml), 416 and 287; in the data set on New Zealand rabbits (plate 3, rabbit serum 10^-2, coat 1 μg MBPC.3/ml), 402 and 401; with New Zealand rabbits (plate 3, rabbit serum 10^-2, coat 5 μg MBPC.3/ml) it was 857 and 868. Besides, the “optical density (OD) ratio 492/620 nm (×10^3)” value was 818 and 953 in the data set with New Zealand rabbits (plate 3, rabbit serum 10^-2, coat 10 μg MBPC.3/ml); 148 and 155 in the data set on New Zealand rabbits (plate 3, rabbit serum 10^-3, coat 0.5 μg MBPC.3/ml); 168 and 150 in the data set on New Zealand rabbits (plate 3, rabbit serum 10^-3, coat 1 μg MBPC.3/ml); 323 and 314 in the data set with New Zealand rabbits (plate 3, rabbit serum 10^-3, coat 5 μg MBPC.3/ml); 342 and 328 with New Zealand rabbits (plate 3, rabbit serum 10^-3, coat 10 μg MBPC.3/ml); 64 and 69 in the data set on New Zealand rabbits (plate 3, rabbit serum 10^-4, coat 0.5 μg MBPC.3/ml). Also, the “optical density (OD) ratio 492/620 nm (×10^3)” value is 72 and 89 in the data set with New Zealand rabbits (plate 3, rabbit serum 10^-4, coat 1 μg MBPC.3/ml); 170 and 169 with New Zealand rabbits (plate 3, rabbit serum 10^-4, coat 5 μg MBPC.3/ml); 191 and 184 with New Zealand rabbits (plate 3, rabbit serum 10^-4, coat 10 μg MBPC.3/ml); 424 and 425 with New Zealand rabbits (plate 4, rabbit serum 10^-2, coat 0.5 μg MBPC.3/ml); 419 and 447 in the data set with New Zealand rabbits (plate 4, rabbit serum 10^-2, coat 1 μg MBPC.3/ml); 749 and 792 with New Zealand rabbits (plate 4, rabbit serum 10^-2, coat 5 μg MBPC.3/ml). For the same substance, the “optical density (OD) ratio 492/620 nm (×10^3)” value was 849 and 843 in the data set on New Zealand rabbits (plate 4, rabbit serum 10^-2, coat 10 μg MBPC.3/ml); 163 and 154 with New Zealand rabbits (plate 4, rabbit serum 10^-3, coat 0.5 μg MBPC.3/ml); 221 and 151 in the data set on New Zealand rabbits (plate 4, rabbit serum 10^-3, coat 1 μg MBPC.3/ml); 310 and 304 in the data set with New Zealand rabbits (plate 4, rabbit serum 10^-3, coat 5 μg MBPC.3/ml); 332 and 314 in the data set with New Zealand rabbits (plate 4, rabbit serum 10^-3, coat 10 μg MBPC.3/ml). In the data set on New Zealand rabbits (rabbits injected), the “titers of anti-GPGRAF antibodies” value is recorded as “did not produce significant titers”.

Regarding “(RKSIHIGPGRAFYT)4 -(K)2 -K-βA-OH (also: four copies on lysine core (K)2-K-βA-OH) [MBPC.5, tetradecapeptide MBPC]”, the Toxicity entry in the data set with 8E5 cells is listed as “Toxic; also recorded: induced some toxicity”.

The values above are taken from patent US5622933A, “Multiple branch peptide constructions for use against HIV” (priority 1993, dated 1997).
